Data set [1] deals with T1, MTR4 (full length) (human, UniProt P42285 1-1042).
T1 construct: MTR4, human, full length; also called MTR4A; MTR4B; not shown: His6, N-terminal, cleaved; GST, N-terminal, cleaved
T1 sequence (looked up): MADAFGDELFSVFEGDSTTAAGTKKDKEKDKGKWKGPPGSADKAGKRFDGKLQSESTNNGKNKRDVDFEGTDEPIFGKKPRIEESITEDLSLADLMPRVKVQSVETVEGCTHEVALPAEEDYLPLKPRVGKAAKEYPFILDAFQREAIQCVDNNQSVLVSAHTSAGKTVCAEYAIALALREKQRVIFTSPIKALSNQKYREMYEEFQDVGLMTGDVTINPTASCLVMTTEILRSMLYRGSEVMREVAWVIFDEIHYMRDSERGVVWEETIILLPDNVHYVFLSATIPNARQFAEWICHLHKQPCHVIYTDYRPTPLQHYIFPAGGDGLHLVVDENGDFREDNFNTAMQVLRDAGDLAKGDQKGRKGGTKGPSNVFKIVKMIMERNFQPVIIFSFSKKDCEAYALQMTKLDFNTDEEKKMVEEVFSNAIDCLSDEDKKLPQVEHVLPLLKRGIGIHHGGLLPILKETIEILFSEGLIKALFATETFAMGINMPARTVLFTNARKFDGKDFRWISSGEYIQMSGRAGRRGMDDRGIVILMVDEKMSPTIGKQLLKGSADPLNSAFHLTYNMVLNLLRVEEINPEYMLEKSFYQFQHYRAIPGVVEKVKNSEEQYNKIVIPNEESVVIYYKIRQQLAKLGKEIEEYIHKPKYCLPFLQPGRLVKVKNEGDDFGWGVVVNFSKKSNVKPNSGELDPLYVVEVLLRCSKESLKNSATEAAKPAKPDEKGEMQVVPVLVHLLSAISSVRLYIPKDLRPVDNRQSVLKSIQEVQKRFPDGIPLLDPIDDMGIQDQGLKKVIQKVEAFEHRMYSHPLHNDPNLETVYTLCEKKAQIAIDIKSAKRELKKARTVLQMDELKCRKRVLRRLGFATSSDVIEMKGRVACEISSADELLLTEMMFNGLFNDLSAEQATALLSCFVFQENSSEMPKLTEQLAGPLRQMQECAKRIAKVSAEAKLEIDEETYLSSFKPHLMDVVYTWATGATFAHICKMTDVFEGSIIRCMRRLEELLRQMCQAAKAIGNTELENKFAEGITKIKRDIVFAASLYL
In words: cryo-EM structure; NEXT^L at 2 μM with equimolar 5'-hairpin-U60 RNA and 2 mM AMPPNP, 20 mM HEPES-NaOH pH 7.5, 50 mM NaCl, 2 mM DTT, 2 mM MgCl2; cross-linked with 0.03% glutaraldehyde. Particulars: both partners purified.

The target of data set [2] is T1, MTR4 (full length). Nature of the data set: SEC; pre-assembled complexes of full-length MTR4, RBM7(RRM) and N-terminally truncated ZCCHC8 constructs ending at 337; Superdex 200 Increase 3.2/300; 20 mM Hepes-NaOH pH 7.5, 150 mM NaCl, 2 mM DTT; 300 pmol in 30 μL injected; peak fractions on SDS-PAGE. Particulars: both partners purified. On the technique in general: Size exclusion chromatography separates by hydrodynamic size, large species first.

Data set [3] deals with the molecule itself. The data set is described as above.
The target in data set [4] is T2, eYFP-(GS)3-MTR4(75-1042) (human, UniProt P42285 75-1042).
T2 chain: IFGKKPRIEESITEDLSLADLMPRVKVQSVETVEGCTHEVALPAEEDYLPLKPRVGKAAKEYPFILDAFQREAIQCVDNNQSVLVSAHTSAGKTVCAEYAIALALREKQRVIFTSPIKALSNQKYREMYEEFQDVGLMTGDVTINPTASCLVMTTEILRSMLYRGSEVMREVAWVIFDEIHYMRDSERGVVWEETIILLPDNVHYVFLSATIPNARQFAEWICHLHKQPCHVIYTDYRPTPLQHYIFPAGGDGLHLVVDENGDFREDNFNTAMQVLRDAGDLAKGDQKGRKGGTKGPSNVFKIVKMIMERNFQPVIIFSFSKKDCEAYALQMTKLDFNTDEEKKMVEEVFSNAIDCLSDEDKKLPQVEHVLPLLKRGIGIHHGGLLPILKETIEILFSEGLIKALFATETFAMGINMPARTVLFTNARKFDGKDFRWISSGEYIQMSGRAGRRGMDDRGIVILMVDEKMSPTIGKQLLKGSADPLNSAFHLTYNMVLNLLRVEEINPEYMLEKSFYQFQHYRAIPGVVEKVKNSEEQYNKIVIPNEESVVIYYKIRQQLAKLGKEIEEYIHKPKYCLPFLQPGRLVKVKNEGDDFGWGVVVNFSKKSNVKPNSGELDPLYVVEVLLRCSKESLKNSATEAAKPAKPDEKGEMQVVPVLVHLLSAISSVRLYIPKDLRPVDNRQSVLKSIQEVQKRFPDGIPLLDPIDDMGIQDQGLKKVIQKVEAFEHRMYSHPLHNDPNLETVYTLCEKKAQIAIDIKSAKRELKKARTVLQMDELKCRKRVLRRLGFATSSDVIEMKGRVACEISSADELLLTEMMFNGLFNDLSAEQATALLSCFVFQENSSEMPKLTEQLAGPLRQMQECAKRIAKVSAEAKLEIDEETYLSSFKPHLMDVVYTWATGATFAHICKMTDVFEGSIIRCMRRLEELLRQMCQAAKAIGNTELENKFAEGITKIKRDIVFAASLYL
Nature of the data set: MST.

Data set [5] deals with T1, MTR4 (full length). Nature of the data set: cryo-EM structure; NEXT^S at 15 μM with 1.2 molar excess RNA-U20 and 2 mM AMPPNP, 20 mM HEPES-NaOH pH 7.5, 150 mM NaCl, 2 mM DTT, 2 mM MgCl2; cross-linked with 1 mM BS3. Particulars: both partners purified.
Data set [6] concerns the molecule itself. Described as above.
For data set [7], the target named is T3, eYFP-(GS)3-MTR4(75-1042) (human, UniProt P42285 75-1042).
T3 construct: MTR4, human, residues 75-1042, joined to eYFP by a (GS)3 linker; also called eYFP-tagged MTR4; source: E. coli BL21 Star (DE3) pRARE, purified; not shown: eYFP, N-terminal, kept
T3 sequence (looked up): T2 chain
In words: MST; eYFP-(GS)3-MTR4(75-1042) fixed at 50 nM, increasing ZCCHC8/RBM7; 50 mM HEPES-NaOH pH 7.5, 150 mM NaCl, 2 mM DTT, 10% glycerol, 0.1% Pluronic F-127; room temperature; triplicates. Particulars: both partners purified.

B1: ZCCHC8 deletion mutant Δ416-506 (natural protein, human)
chain: MAAEVYFGDLELFEPFDHPEESIPKPVHTRFKDDDGDEEDENGVGDAELRERLRQCEETIEQLRAENQELKRKLNILTRPSGILVNDTKLDGPILQILFMNNAISKQYHQEIEEFVSNLVKRFEEQQKNDVEKTSFNLLPQPSSIVLEEDHKVEESCAIKNNKEAFSVVGSVLYFTNFCLDKLGQPLLNENPQLSEGWEIPKYHQVFSHIVSLEGQEIQVKAKRPKPHCFNCGSEEHQMKDCPMPRNAARISEKRKEYMDACGEANNQNFQQRYHAEEVEERFGRFKPGVISEELQDALGVTDKSLPPFIYRMRQLGYPPGWLKEAELENSGLALYDGKDGTDGETEVGEIQQNKSVTYDLSKLVNYPGFNISTPRGIPDEWRIFGSIPMQACQQKDVFANYLTSNFQAPGVKSGSGAVDEDALTLEELEEQQRRIWAALEQAESVNSDSDVPVDTPLTGNSVASSPCPNELDLPVPEGKTSEKQTLDEPEVPEIFTKKSEAGHASSPDSEVTSLCQKEKAELAPVNTEGALLDNGSVVPNCDISNGGSQKLFPADTSPSTATKIHSPIPDMSKFATGITPFEFENMAESTGMYLRIRSLLKNSPRNQQKNKKASE
notes: ZCCHC8, human, deletion mutant lacking residues 416-506 but still including the C-terminal domain; Construct adapted from Puno and Lima (2018); also called ZCCHC8^L; hZCCHC8(Δ416-506); source: E. coli BL21 Star (DE3) pRARE, co-expressed and co-purified with RBM7(1-98); not shown: His6, N-terminal, cleaved; SUMO, N-terminal, cleaved
Turning to B1, in data set [1], the binding result is “binds”.

B2: ZCCHC8 (residues 177-337) (domain or fragment, human, UniProt Q6NZY4 177-337, looked up)
chain: NFCLDKLGQPLLNENPQLSEGWEIPKYHQVFSHIVSLEGQEIQVKAKRPKPHCFNCGSEEHQMKDCPMPRNAARISEKRKEYMDACGEANNQNFQQRYHAEEVEERFGRFKPGVISEELQDALGVTDKSLPPFIYRMRQLGYPPGWLKEAELENSGLALYD
notes: source: E. coli BL21 Star (DE3) pRARE, co-expressed and co-purified with RBM7(1-98); not shown: His6, N-terminal, cleaved; GST, N-terminal, cleaved
With B2, the binding result in data set [2] is “binds”.

B3: ZCCHC8 (residues 91-337) (domain or fragment, human, UniProt Q6NZY4 91-337, looked up)
chain: DGPILQILFMNNAISKQYHQEIEEFVSNLVKRFEEQQKNDVEKTSFNLLPQPSSIVLEEDHKVEESCAIKNNKEAFSVVGSVLYFTNFCLDKLGQPLLNENPQLSEGWEIPKYHQVFSHIVSLEGQEIQVKAKRPKPHCFNCGSEEHQMKDCPMPRNAARISEKRKEYMDACGEANNQNFQQRYHAEEVEERFGRFKPGVISEELQDALGVTDKSLPPFIYRMRQLGYPPGWLKEAELENSGLALYD
notes: source: E. coli BL21 Star (DE3) pRARE, co-expressed and co-purified with RBM7(1-98); not shown: His6, N-terminal, cleaved; GST or SUMO, N-terminal, cleaved
In the case of B3, the binding result in data set [2] and in data set [3] was “binds” each time.

B4: dimeric ZCCHC8(41-337)/RBM7(RRM) (complex)
chain 1: ENGVGDAELRERLRQCEETIEQLRAENQELKRKLNILTRPSGILVNDTKLDGPILQILFMNNAISKQYHQEIEEFVSNLVKRFEEQQKNDVEKTSFNLLPQPSSIVLEEDHKVEESCAIKNNKEAFSVVGSVLYFTNFCLDKLGQPLLNENPQLSEGWEIPKYHQVFSHIVSLEGQEIQVKAKRPKPHCFNCGSEEHQMKDCPMPRNAARISEKRKEYMDACGEANNQNFQQRYHAEEVEERFGRFKPGVISEELQDALGVTDKSLPPFIYRMRQLGYPPGWLKEAELENSGLALYD
chain 2: MGAAAAEADRTLFVGNLETKVTEELLFELFHQAGPVIKVKIPKDKDGKPKQFAFVNFKHEVSVPYAMNLLNGIKLYGRPIKIQFRSGSSHAPQDVSLS
As a reminder, the Kd is the free concentration of one partner at which half of the binding sites on the other are occupied at equilibrium, for simple one-to-one binding. Higher therefore signals lower affinity. B4 came in with a Kd in data set [4] of 120 nM.

B5: ZCCHC8 (residues 41-337) (domain or fragment, human, UniProt Q6NZY4 41-337, looked up)
chain: B4 chain 1
notes: also called ZCCHC8^S; not shown: His6, N-terminal, cleaved; GST, N-terminal, cleaved
The term stoichiometry N denotes a count of units in the complex or per binding partner. Consider B5, for which the binding result in data set [5] was “binds”. Moreover, the “stoichiometry N” value in data set [6] came to 2.

B6: monomeric ZCCHC8(177-337)/RBM7(RRM) (complex, human)
chain 1: B2 chain
chain 2: B4 chain 2
notes: RBM7, human, residues 1-98 with the RRM domain; also called monomeric ZCCHC8-RBM7 unit; source: E. coli BL21 Star (DE3) pRARE, co-expressed and co-purified; not shown: His6, N-terminal, cleaved; GST, N-terminal, cleaved; Z tag or SUMO, N-terminal, cleaved; copies: 1 + 1
In turn, B6 registered a Kd in data set [4] of 540 nM. Besides, the binding result in data set [7] is listed as “binds”.

Values taken from paper PMC9278407, “Structure and regulation of the nuclear exosome targeting complex guides RNA substrates to the exosome” (Molecular Cell, 2022).
